# Assay results reported in publication PMC6995573 (2019).
# T1: Human ornithine decarboxylase (human, UniProt P11926 2-421)
# T1 chain: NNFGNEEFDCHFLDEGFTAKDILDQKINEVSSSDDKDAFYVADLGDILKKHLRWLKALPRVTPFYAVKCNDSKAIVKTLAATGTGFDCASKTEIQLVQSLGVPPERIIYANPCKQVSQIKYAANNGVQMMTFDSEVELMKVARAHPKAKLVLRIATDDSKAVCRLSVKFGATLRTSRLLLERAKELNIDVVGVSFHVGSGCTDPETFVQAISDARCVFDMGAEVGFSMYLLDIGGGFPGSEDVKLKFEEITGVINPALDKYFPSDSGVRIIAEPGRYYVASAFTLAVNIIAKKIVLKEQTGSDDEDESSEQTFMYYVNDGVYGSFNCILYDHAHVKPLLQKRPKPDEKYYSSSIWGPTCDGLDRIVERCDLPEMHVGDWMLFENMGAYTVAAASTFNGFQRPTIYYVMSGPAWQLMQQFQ
# B1: AZ2 (natural protein)
# chain: MINTQDSSILPLSNCPQLQCCRHIVPGPLWCSDAPHPLSKIPGGRGGGRDPSLSALIYKDEKLTVTQDLPVNDGKPHIVHFQYEVTEVKVSSWDAVLSSQSLFVEIPDGLLADGSKEGLLALLEFAEEKMKVNYVFICFRKGREDRAPLLKTFSFLGFEIVRPGHPCVPSRPDVMFMVYPLDQNLSDED
# B2: AZ3_WT (natural protein)
# chain: MPCKRCRPSVYSLSYIKRGKTRNYLYPIWSPYAYYLYCYKYRITLREKMLPRCYKSITYKEEEDLTLQPRSCLQCSESLVGLQEGKSTEQGNHDQLKELYSAGNLTVLATDPLLHQDPVQLDFHFRLTSQTSAHWHGLLCDRRLFLDIPYQALDQGNRESLTATLEYVEEKTNVDSVFVNFQNDRNDRGALLRAFSYMGFEVVRPDHPALPPLDNVIFMVYPLERDVGHLPSEPP
# B3: AZ_(95–228)_R100A (domain or fragment)
# chain: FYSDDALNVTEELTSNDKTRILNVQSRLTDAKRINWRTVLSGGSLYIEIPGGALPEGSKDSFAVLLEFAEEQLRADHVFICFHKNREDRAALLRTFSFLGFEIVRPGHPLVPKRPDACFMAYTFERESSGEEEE
# B4: AZ_(95–228)_E106A (domain or fragment)
# chain: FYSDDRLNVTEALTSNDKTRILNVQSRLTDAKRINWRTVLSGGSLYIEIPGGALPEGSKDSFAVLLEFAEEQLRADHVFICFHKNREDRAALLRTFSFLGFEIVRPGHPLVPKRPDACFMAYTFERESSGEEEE
# B5: AZ_(95–228)_D99A (domain or fragment)
# chain: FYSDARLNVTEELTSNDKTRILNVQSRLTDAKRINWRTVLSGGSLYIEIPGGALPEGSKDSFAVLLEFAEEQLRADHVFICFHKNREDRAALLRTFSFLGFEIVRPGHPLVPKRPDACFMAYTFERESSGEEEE
# B6: AZ_(95–228)_R121A (domain or fragment)
# chain: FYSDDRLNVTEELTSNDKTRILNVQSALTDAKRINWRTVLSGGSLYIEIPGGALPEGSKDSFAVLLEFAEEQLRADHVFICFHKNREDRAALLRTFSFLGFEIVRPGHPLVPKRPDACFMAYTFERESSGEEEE
# B7: AZ_(95–228)_D124A (domain or fragment)
# chain: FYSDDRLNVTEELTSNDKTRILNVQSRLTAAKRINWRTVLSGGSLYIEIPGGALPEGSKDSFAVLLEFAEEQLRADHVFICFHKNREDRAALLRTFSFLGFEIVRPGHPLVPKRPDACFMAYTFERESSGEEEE
# B8: AZ_(95–228)_R114A (domain or fragment)
# chain: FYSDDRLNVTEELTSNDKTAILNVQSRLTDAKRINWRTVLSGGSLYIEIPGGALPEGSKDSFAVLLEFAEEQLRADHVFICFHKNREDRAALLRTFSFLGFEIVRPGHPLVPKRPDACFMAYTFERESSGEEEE
# B9: AZ_(95–228)_D98A (domain or fragment)
# chain: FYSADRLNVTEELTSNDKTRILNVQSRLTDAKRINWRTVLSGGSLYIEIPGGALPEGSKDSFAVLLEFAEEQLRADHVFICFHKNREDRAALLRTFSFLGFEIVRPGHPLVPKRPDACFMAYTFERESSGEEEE
# B10: AZ_(95–228)_E105A (domain or fragment)
# chain: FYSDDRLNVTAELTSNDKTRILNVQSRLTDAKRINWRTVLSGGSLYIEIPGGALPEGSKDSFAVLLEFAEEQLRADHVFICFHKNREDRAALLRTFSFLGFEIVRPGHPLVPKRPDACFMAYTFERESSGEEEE
# B11: AZ_(95–228)_D111A (domain or fragment)
# chain: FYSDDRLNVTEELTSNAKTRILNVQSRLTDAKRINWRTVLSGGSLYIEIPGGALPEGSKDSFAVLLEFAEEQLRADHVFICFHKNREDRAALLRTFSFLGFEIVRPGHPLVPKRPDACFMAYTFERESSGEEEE
# Target: T1, Human ornithine decarboxylase
# Experiment: inhibition of ODC enzyme activity
row,Binder,IC50 [nM]
1,B1,190
2,B2,840

# Target: T1, Human ornithine decarboxylase
# Experiment: AUC
row,Binder,Kd [nM]
1,B1,280
2,B2,590

# Target: T1, Human ornithine decarboxylase
# Experiment: inhibition of ODC enzyme activity
# Remark: another data set of the same source
row,Binder,IC50 [nM]
1,B3,190
2,B4,200
3,B5,170
4,B6,160
5,B7,170
6,B8,160
7,B9,180
8,B10,190
9,B11,190
